This passage reports protein stability index results from the supplement of paper PMC10567573.

The labels stand for the following.
B1: NETO1 (parent)
chain: KTSLLDQLTNTSGTVIGVTSCIVI
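Also: lentivirally expressed fusions sorted by FACS into six bins by GFP to DsRed ratio, PSI derived from sequencing read proportions per bin multiplied by bin number.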

The data set covers variants of B1. The experiment in a line: protein stability index of a GFP-peptide fusion (GPS, HEK-293T) (PSI 1-6); higher = more stable. The following applies: c terminus: a fixed tail appended.
As for KTSLLDQLTNTSGTVIGQTSCIVI, the protein stability index is 2.66.
KTSLLDQLTNTSGTVIGPTSCIVI: the protein stability index is 2.84.
For KTSLLDQLTNTSGTVIGKTSCIVI, the protein stability index worked out at 3.8.
As for KTSLLDQLTNTSGTVIGFTSCIVI, the figure is 2.48.
Consider KTSLLDQLTNTSGTVIGSTSCIVI, for which the protein stability index was 3.67.
For the variant KTSLLDQLTNTSGTVIGETSCIVI, the protein stability index is 2.2.
Take KTSLLDQLTNTSGTVIGYTSCIVI: the protein stability index was 3.56.
For the variant KTSLLDQLTNTSGTVIGTTSCIVI, the protein stability index was 2.93.
As for KTSLLDQLTNTSGTVIGMTSCIVI, the figure is 3.92; as for KTSLLDQLTNTSGTVIGHTSCIVI, 2.95.
With KTSLLDQLTNTSGTVIGRTSCIVI, the protein stability index came to 2.23.
Take KTSLLDQLTNTSGTVIGGTSCIVI: the protein stability index came out at 3.24.
With KTSLLDQLTNTSGTVIGDTSCIVI, the protein stability index worked out at 2.55.
With KTSLLDQLTNTSGTVIGATSCIVI, the protein stability index worked out at 3.38.
As for KTSLLDQLTNTSGTVIGLTSCIVI, the protein stability index is 3.12.
With KTSLLDQLTNTSGTVIGNTSCIVI, the protein stability index amounted to 4.17.
The result for KTSLLDQLTNTSGTVIGCTSCIVI reads 1.92; that for KTSLLDQLTNTSGTVIGITSCIVI, 2.84.
On to KTSLLDQLTNTSGTVIGWTSCIVI, for which the protein stability index was found to be 4.09.
With KTSLLDQLTNTSGTVSGVTSCIVI, the protein stability index turned out to be 3.79.
As for KTSLLDQLTNTSGTVPGVTSCIVI, the figure is 2.76.
As for KTSLLDQLTNTSGTVRGVTSCIVI, the figure is 2.79; as for KTSLLDQLTNTSGTVTGVTSCIVI, 3.23.
On to KTSLLDQLTNTSGTVVGVTSCIVI, for which the protein stability index worked out at 2.48.
Regarding KTSLLDQLTNTSGTVNGVTSCIVI, the protein stability index was found to be 2.27.
As to KTSLLDQLTNTSGTVYGVTSCIVI, the protein stability index was 2.12.
KTSLLDQLTNTSGTVWGVTSCIVI: the protein stability index turned out to be 2.03.
The result for KTSLLDQLTNTSGTVQGVTSCIVI reads 2.94; that for KTSLLDQLTNTSGTVIGVASCIVI, 3.16; that for KTSLLDQLTNTSGTVIGVQSCIVI, 3.55.
For KTSLLDQLTNTSGTVIGVKSCIVI, the protein stability index was found to be 2.97.
Consider KTSLLDQLTNTSGTVIGVYSCIVI, for which the protein stability index is 2.79.
As for KTSLLDQLTNTSGTVIGVISCIVI, the protein stability index stood at 2.2.
The result for KTSLLDQLTNTSGTVIGVWSCIVI reads 2.06; that for KTSLLDQLTNTSGTVIGVLSCIVI, 3.78; that for KTSLLDQLTNTSGTVIGVVSCIVI, 2.91.
As for KTSLLDQLTNTSGTVIGVNSCIVI, the figure is 3.28; as for KTSLLDQLTNTSGTVIGVMSCIVI, 2.5.
Consider KTSLLDQLTNTSGTVIGVRSCIVI, for which the protein stability index stood at 3.08.
The result for KTSLLDQLTNTSGTVIGVHSCIVI reads 4.49.
For the variant KTSLLDQLTNTSGTVIGVSSCIVI, the protein stability index was 3.29.
Turning to KTSLLDQLTNTSGTVIGVCSCIVI, the protein stability index is 2.73.
Consider KTSLLDQLTNTSGTVIGVDSCIVI, for which the protein stability index worked out at 1.59.
For KTSLLDQLTNTSGTVIGVPSCIVI, the protein stability index was 1.91.
Take KTSLLDQLTNTSGTVIGVFSCIVI: the protein stability index turned out to be 2.52.
In the case of KTSLLDQLTNTSGTVIGVGSCIVI, the protein stability index came out at 3.
As for KTSLLDQLTNTSGTVIGVESCIVI, the figure is 2.68; as for KTSLLDQLTNTSGTVIGVTSCIVW, 2.92.
As for KTSLLDQLTNTSGTVIGVTSCIVA, the figure is 1.71; as for KTSLLDQLTNTSGTVIGVTSCIVM, 2.45; as for KTSLLDQLTNTSGTVIGVTSCIVH, 1.99.
Turning to KTSLLDQLTNTSGTVIGVTSCIVR, the protein stability index amounted to 1.74.
As for KTSLLDQLTNTSGTVIGVTSCIVQ, the figure is 1.62.
Consider KTSLLDQLTNTSGTVIGVTSCIVK, for which the protein stability index was found to be 2.04.
For the variant KTSLLDQLTNTSGTVIGVTSCIVE, the protein stability index worked out at 2.21.
The result for KTSLLDQLTNTSGTVIGVTSCIVT reads 1.6.
Consider KTSLLDQLTNTSGTVIGVTSCIVC, for which the protein stability index is 1.64.
In the case of KTSLLDQLTNTSGTVIGVTSCIVP, the protein stability index turned out to be 2.33.
Turning to KTSLLDQLTNTSGTVIGVTSCIVN, the protein stability index worked out at 2.08.
As for KTSLLDQLTNTSGTVIGVTSCIVD, the figure is 2.54.
Regarding KTSLLDQLTNTSGTVIGVTSCIVF, the protein stability index came out at 1.79.
Regarding KTSLLDQLTNTSGTVIGVTSCIVL, the protein stability index worked out at 3.2.
The result for KTSLLDQLTNTSGTVIGVTSCIVG reads 1.79; that for KTSLLDQLTNTSGTVIGVTSCIVY, 2.55; that for KTSLLDQLTNTSGTVIGVTSCIVV, 2.2.
Take KTSLLDQLTNTSGTVIGVTSCIVS: the protein stability index is 1.94.
Turning to KTSLLDQLTNTSGTVIGVTSHIVI, the protein stability index is 2.2.
The result for KTSLLDQLTNTSGTVIGVTSWIVI reads 2.62; that for KTSLLDQLTNTSGTVIGVTSFIVI, 3.65; that for KTSLLDQLTNTSGTVIGVTSKIVI, 3.29.
As to KTSLLDQLTNTSGTVIGVTSGIVI, the protein stability index is 3.12.
As for KTSLLDQLTNTSGTVIGVTSEIVI, the figure is 2.83; as for KTSLLDQLTNTSGTVIGVTSQIVI, 3.44; as for KTSLLDQLTNTSGTVIGVTSYIVI, 2.72.
For KTSLLDQLTNTSGTVIGVTSMIVI, the protein stability index was 2.41.
KTSLLDQLTNTSGTVIGVTSRIVI: the protein stability index is 3.31.
Turning to KTSLLDQLTNTSGTVIGVTSSIVI, the protein stability index came to 3.06.
Consider KTSLLDQLTNTSGTVIGVTSAIVI, for which the protein stability index is 2.7.
For the variant KTSLLDQLTNTSGTVIGVTSLIVI, the protein stability index turned out to be 3.29.
On to KTSLLDQLTNTSGTVIGVTSNIVI, for which the protein stability index was determined as 3.1.
KTSLLDQLTNTSGTVIGVTSPIVI: the protein stability index came out at 2.13.
On to KTSLLDQLTNTSGTVIGVTSIIVI, for which the protein stability index came out at 2.7.
For the variant KTSLLDQLTNTSGTVIGVTSVIVI, the protein stability index is 3.29.
Regarding KTSLLDQLTNTSGTVIGVTSTIVI, the protein stability index was found to be 2.88.
Consider KTSLLDQLTNTSGTVIGVTSDIVI, for which the protein stability index is 2.31.
Turning to KTSLLDQLTNTSGTVIGVTSCICI, the protein stability index was found to be 3.17.
KTSLLDQLTNTSGTVIGVTSCIQI: the protein stability index is 2.87.
KTSLLDQLTNTSGTVIGVTSCIFI: the protein stability index came out at 2.28.
Take KTSLLDQLTNTSGTVIGVTSCIMI: the protein stability index was 2.56.
With KTSLLDQLTNTSGTVIGVTSCIAI, the protein stability index worked out at 2.03.
As to KTSLLDQLTNTSGTVIGVTSCIWI, the protein stability index amounted to 2.74.
KTSLLDQLTNTSGTVIGVTSCIRI: the protein stability index came to 2.65.
As for KTSLLDQLTNTSGTVIGVTSCIKI, the protein stability index is 3.04.
Regarding KTSLLDQLTNTSGTVIGVTSCINI, the protein stability index was 2.01.
